Assay results from US6972178B1, “Drug screening using a proline-rich nuclear receptor co-regulatory protein/nuclear receptor co-expression system” (City of Hope, priority 1999, dated 2005).

What was measured:
SF1 [1] = target: T1, SF1 (Bos taurus, UniProt Q04752); test: Mammalian two-hybrid assay in SK-BR-3 cells (CAT reporter); type: cell-based, bovine; design: expressed in transfected cells; host or cells: SK-BR-3; conditions: pM-SF1 + pVP16-PNRC + pG5CAT
Method: The Mammalian MatchMaker two-hybrid assay system (Clontech) was used to confirm the interaction between PNRC and SF1 that was identified in the yeast assays. Because the assays are performed in mammalian cells, proteins are more likely to be in their native conformations, and the results are therefore more likely to represent biologically significant interactions. SK-BR-3 breast cancer cells were cotransfected with three expression plasmids, including pM-SF1 for Gal4 DNA-DB/SF1 fusion protein, pVP16-PNRC for VP16AD-PNRC fusion protein, and a third vector, pG5CAT, to provide the Gal4 DNA-binding site, a promoter, and the CAT reporter gene.
A set of plasmids, named pM-SF1, pVP16-PNRC, pVP16-PNRC270-327, and pVP16-PNRC278-300, for mammalian two-hybrid assays were prepared as follows: SF1 cDNA fragment was excised from pGBT9-SF1 and inserted in frame into Gal4 DNA-binding domain vector pM (Clontech) through an EcoRI site. PCR was used to generate PNRC full length coding region as well as the above mentioned deleted fragments with BclI at both ends. The PCR products were digested with BclI and inserted in proper reading frame into a pVP16 activation domain vector (Clontech) at a BamHI site. Mammalian two-hybrid assays in SK-BR-3 cells were performed according to the procedures described in the Clontech protocol (PT3002-1).

SF1 [2] = target: T1, SF1; test: Nuclear receptor transactivation, CAT reporter in SK-BR-3 cells; type: cell-based, bovine; design: The coding region for the wild type bovine SF1 was first subcloned into a yeast expression vector, pGBT9; expressed in transfected cells; host or cells: yeast (Y187, or Y187 x CG1945 diploids)
Source text: To examine the possible biological significance of this interaction, the entire PNRC coding region was inserted into a mammalian expression vector, pSG5, and this expression plasmid was used to transiently transfect SK-BR-3 cells along with a reporter plasmid, pUMS 1.3CAT-(SF1site)3, which contains three copies of extended steroid hormone half binding site from the human aromatase gene (5′-CCAAGGTCAGAA-3′ (SEQ ID NO:3)), promoter 1.3 of the human aromatase gene, and the CAT reporter gene, along with a second expression plasmid for either SF1 (pSG5-SF1) or ERRα1 (pSG5-ERRα1) (Yang et al., 1998).
Plasmid for overexpression of PNRC in mammalian cells was made by inserting PCR-amplified fragment with BclI at both ends into the BamHI site in pSG5 vector (Stratagene). To construct mammalian expression plasmids for bovine SF1 and human ERRα1, named pSG5-bSF1 and pSGS-hERRα1, the coding regions for SF1 and ERRα1 were amplified by PCR with an EcoRI site at both ends, and inserted into an EcoRI site of the pSG5 vector. The CAT reporter plasmid, pUMS1.3CAT-(SF1site)3, was prepared by inserting 3 copies of SF1 binding site from human aromatase gene, 5′-CCAAGGTCAGAA-3′ (SEQ ID NO:3), into pUMS-64/+5CAT (Zhou and Chen, 1999) through a HindIII site. […]

T1 sequence (Q04752 whole entry, the tested form may be a part): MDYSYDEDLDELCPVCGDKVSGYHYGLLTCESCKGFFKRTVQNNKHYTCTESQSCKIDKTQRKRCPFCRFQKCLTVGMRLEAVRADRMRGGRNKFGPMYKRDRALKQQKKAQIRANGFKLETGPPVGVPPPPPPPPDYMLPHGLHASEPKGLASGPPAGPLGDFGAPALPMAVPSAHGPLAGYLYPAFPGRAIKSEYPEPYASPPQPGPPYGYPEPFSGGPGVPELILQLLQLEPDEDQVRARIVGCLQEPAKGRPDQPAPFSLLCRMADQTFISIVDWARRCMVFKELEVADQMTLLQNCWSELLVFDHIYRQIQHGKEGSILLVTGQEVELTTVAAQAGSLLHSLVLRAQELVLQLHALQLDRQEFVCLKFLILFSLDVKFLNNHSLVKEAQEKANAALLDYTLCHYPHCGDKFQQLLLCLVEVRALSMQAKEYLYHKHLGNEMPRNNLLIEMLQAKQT

CAT activity relative to cells transfected with only CAT reporter plasmid (SF1 [1]): 5-6 fold
Substance: PNRC: proline-rich nuclear receptor co-regulatory protein, 327 aa, SEQ ID NO:8, nuclear receptor coactivator
effect on SF1-stimulated transcription by promoter 1.3 of the human aromatase gene (SF1 [2]): enhanced both SF1-stimulated and ERRα1-stimulated transcription
